Source: the supplement of paper PMC9732359
± gives the uncertainty stated by the source.

Assay: protein stability index of a GFP-peptide fusion (yeast GPS) (PSI 1-4); higher = more stable; sorted into four equal gates, so the index is relative within each strain
Method in brief: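 Plasmids in a pooled yeast library fused tiled 17-residue yeast protein peptides downstream of GFP and also expressed Cherry. Mid-log cultures grown without leucine were sorted into four equal gates by GFP/Cherry fluorescence ratio. Each gate's plasmids were PCR-amplified and Illumina-sequenced, and reads were matched to strains by barcodes. The protein stability index is derived by multiplying each gate's read frequency by its gate number and summing the results.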

Sequence | protein stability index (doa10∆) | protein stability index (pdr5∆) | protein stability index (san1∆) | protein stability index (ubr1∆)
LKVDPDMLTWVDSNLPD [RPC40] | 3.02 ± 0.082 | 3.13 ± 0.062 | 2.54 ± 0.16 | 3.26 ± 0.073
AQAAQAAQAQAQAQAQA [GAL11] | 2.53 ± 0.041 | 2.87 ± 0.046 | 2.71 ± 0.034 | 2.82 ± 0.044
QQQSADHDDSTDDADDH [NSL1] | 2.91 ± 0.059 | 2.91 ± 0.064 | 2.77 ± 0.057 | 3.01 ± 0.037
VDPFTRKEWFDIKAPST [RPS1A] | 2.38 ± 0.072 | 2.57 ± 0.067 | 2.55 ± 0.045 | 2.89 ± 0.06
TTLNIKVEKRVLGLTIL [SMB1] | 1.86 ± 0.075 | 2.79 ± 0.093 | 2.39 ± 0.14 | 2.27 ± 0.08
LKESIKNSTSSMTAVPK [RPN1] | 3.02 ± 0.096 | 3.31 ± 0.1 | 3.14 ± 0.1 | 3.2 ± 0.084
FSMLQMAFEASAAAAGN [BRR2] | – | 2.26 ± 0.25 | 1.76 ± 0.21 | –
FELVHHFFQIDGFNKTF [YML103C/NUP188] | 2.03 ± 0.075 | 2.24 ± 0.091 | 2.42 ± 0.074 | 2.36 ± 0.065
KARFVSKLAEEKIRAAG [RPL28] | 2.508 ± 0.025 | 2.66 ± 0.027 | 2.6 ± 0.028 | 2.793 ± 0.024
YGLFLKYHKEQFIKSNF [SRB8] | 2.15 ± 0.067 | 2.29 ± 0.045 | 1.97 ± 0.069 | 2.36 ± 0.054
SKKYQLADWRIRPLSKP [RRP6] | 1.68 ± 0.048 | 1.83 ± 0.048 | 1.3 ± 0.088 | 1.99 ± 0.049
EALFQSRPDILSKIKFP [YCG1] | 2.75 ± 0.067 | 2.62 ± 0.057 | 2.82 ± 0.067 | 3.13 ± 0.058
RVNKNAPAVELHGNAKK [FAS2] | 2.74 ± 0.071 | 3.14 ± 0.07 | 3.2 ± 0.18 | 2.93 ± 0.058
SADAPNPNNVNVQTQYR [RET1] | 2.92 ± 0.09 | 2.84 ± 0.045 | 2.77 ± 0.07 | 2.79 ± 0.05
TRGRNIIMHKDVEIGRM [RET1] | – | 3.1 ± 0.16 | 2.98 ± 0.076 | 2.74 ± 0.15
LEERFDPKSPTKRSIAI [YMR129W/POM152] | 2.94 ± 0.055 | 3.14 ± 0.055 | 2.9 ± 0.037 | 3.02 ± 0.034
NVVVKWQGKPVFIRHRT [RIP1] | 3.35 ± 0.25 | – | 3.41 ± 0.07 | 2.88 ± 0.27
KEPVDDKDVKAKYETSI [FAS2] | 3.2 ± 0.086 | 3.21 ± 0.12 | 2.43 ± 0.12 | 2.83 ± 0.13
RSGALIKFKKCDGDTVW [SSN2] | 2.85 ± 0.053 | 2.9 ± 0.048 | 2.62 ± 0.048 | 2.71 ± 0.043
ISLLALPHSPLWELALA [YML031W/NDC1] | 1.35 ± 0.086 | 1.49 ± 0.061 | 1.34 ± 0.11 | 1.7 ± 0.042
IDDLIHEIITVGPHFKQ [RPL7A] | 1.87 ± 0.1 | 2.32 ± 0.11 | – | 1.56 ± 0.064

Sequence | protein stability index (doa10∆) | protein stability index (pdr5∆) | protein stability index (san1∆) | protein stability index (ubr1∆)
ESYDAALSLHREILCYS [FAS2] | 2.18 ± 0.022 | 2.151 ± 0.019 | 2.28 ± 0.028 | 2.28 ± 0.017
NPRKRKASVLEISPQDS [GAL11] | – | – | – | 3.1 ± 0.13
GPPQSLYGLNLTLRKAK [FAS1] | 2.81 ± 0.064 | 2.15 ± 0.065 | 3.32 ± 0.06 | 2.42 ± 0.051
TSVTRRSPVFALNMLPS [GRR1] | 1.45 ± 0.038 | 1.61 ± 0.037 | 1.51 ± 0.061 | 1.73 ± 0.033
SLPEGLLKSLWDYVKKN [TAF14] | 3.01 ± 0.17 | 2.02 ± 0.079 | – | 3.13 ± 0.093
VNDKYKTCAEVIGGNSL [SMC3] | 3.06 ± 0.14 | 3.15 ± 0.16 | 3.29 ± 0.11 | 3.21 ± 0.15
FSKILPAALDGLMKSYK [ESC2] | 2.71 ± 0.059 | 2.28 ± 0.069 | 2.73 ± 0.051 | 2.54 ± 0.056
MRQQSKELQQLQKQILT [SMC1] | 3.32 ± 0.13 | 3.05 ± 0.074 | 3.29 ± 0.039 | 3.17 ± 0.049
NFLSVITNKHQEGLAKF [RPN2] | – | – | – | 3.17 ± 0.14
DFAQKEINGDDDEDEDD [PRE10] | 3.09 ± 0.11 | 3.19 ± 0.071 | 3.22 ± 0.082 | 3.28 ± 0.063
MVTENPQRLTVLRLATN [MCD1] | 2.25 ± 0.069 | 2.32 ± 0.056 | 2.3 ± 0.062 | 2.38 ± 0.051
NLLKNFISSNDAFNMLS [SNF6] | 1.61 ± 0.099 | 2 ± 0.061 | 1.97 ± 0.13 | 1.98 ± 0.043
FQQIQYENKQLYFPDDY [POP1] | 2.92 ± 0.11 | 2.5 ± 0.083 | 2.78 ± 0.12 | 2.73 ± 0.086
QERNKIHQYLFQEGVVV [RPS10B] | 1.27 ± 0.06 | 1.39 ± 0.044 | 1.45 ± 0.09 | 1.45 ± 0.037
GIDINTKIFNSVAEVFQ [YCG1] | 2.08 ± 0.1 | 2.93 ± 0.12 | 2.39 ± 0.12 | 2.86 ± 0.067
ERVWNICLYSSFQKNSL [AAR2] | 1.8 ± 0.059 | 2.01 ± 0.046 | 2.18 ± 0.1 | 2.02 ± 0.034
SATLPNYEDVGRFLRVP [BRR2] | 2.8 ± 0.087 | 3.1 ± 0.062 | 3.04 ± 0.048 | 3.01 ± 0.075
DELEDDTLNETNLKMKR [RRP43] | 3.18 ± 0.093 | 3.25 ± 0.082 | 3.26 ± 0.075 | 3.36 ± 0.098
DELVLNFENDNENNSNG [REC8] | 2.88 ± 0.19 | 2.62 ± 0.28 | 2.64 ± 0.15 | 2.79 ± 0.16
SMHLLKDWTDTFVYILE [SRB8] | 3.06 ± 0.057 | 2.95 ± 0.06 | 2.88 ± 0.047 | 2.97 ± 0.059
